The supplement of paper PMC10567573

B1: PLAGL1 (parent)
chain: LELGSTEVLLDHLKAHAEEKPPSG
B2: LOXL2 (parent)
chain: HISSCKLGPQVSLDPMKNVTCENG

Variants of: B1
Assay: protein stability index of a GFP-peptide fusion (GPS, HEK-293T) (PSI 1-6); higher = more stable
Details: c terminus: a fixed tail appended
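Note: lentivirally expressed fusions sorted by FACS into six bins by GFP to DsRed ratio, PSI derived from sequencing read proportions per bin multiplied by bin number.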

Protein stability index, by site and new letter:
S23: V 4.34; R 4.4; T 4.17; Q 4.71; Y 3.79; P 4.5; W 3.22
G24: V 3.88; A 4.66; P 4.9; R 4.21; N 4.54; D 4.91; Q 4.63; M 3.61; W 3.23; Y 3.7; F 3.21; E 4.68; H 4.47; K 4.34; L 3.51; I 4.07; T 4.18; S 4.46; C 3.97

Variants of: B2
Assay: as above
Details: c terminus: a fixed tail appended

Protein stability index, by site and new letter:
I2: Y 3.61; A 4.35; V 4.21; K 3.4; D 4.58; S 4.34; L 4.24; N 3.76; G 4.53; E 4.48; H 3.53; Q 4.25; M 4.41; C 3.44; P 3.76; T 4.54; R 4.11; W 3.31; F 3.58
S12: L 3.31; T 4.34; K 3.9; P 4.18; D 3.72; G 3.93; C 3.43; F 3.27; W 2.47; R 3.48; I 3.68; E 4.48; Q 4.44; N 3.9; H 4; Y 3.24; A 4.3; M 3.57; V 3.92
M16: A 4.15; K 4.5; I 3.68; R 4.47; S 4.23; E 5.1; P 4.16; Q 4.43; F 3.74; T 4.04; Y 3.86; G 4.22; C 3.94; N 4.61; V 4.34; H 4.11; D 4.75; L 3.78; W 2.86
H1: Q 3.95; T 4.07; R 3.95; L 3.29; M 3.95; E 3.96; F 2.01; S 4.14; D 4.33; I 2.63; Y 2.46; K 4.22; V 3.72; C 3.73; G 4.46; A 3.87; N 4.52; W 3.42; P 4.33
S4: H 3.98; L 3.6; Q 3.69; V 3.91; F 3.34; N 3.47; M 3.94; G 3.79; C 3.78; P 4.22; T 3.65; K 3.96; A 3.65; E 4.37; W 2.32; I 3.02; R 3.52; Y 3.44; D 3.61
P9: I 2.63; A 3.85; G 3.51; H 3.73; N 3.71; Q 3.87; R 3.76; L 2.84; V 3.23; F 2.65; D 4.05; E 4.36; S 3.05; K 4.25; M 2.69; Y 2.83; C 3.23; W 2.2; T 3.95
Q10: F 3.07; Y 3.07; S 4.33; I 3.54; D 4.58; G 4.53; K 3.77; N 3.92; M 3.37; C 3.19; T 3.36; L 3.32; R 3.85; P 3.68; H 3.52; V 3.56; A 4.29; W 2.08; E 4.42
C5: L 4.32; A 4.39; V 4.31; R 4.1; H 4.37; F 3.83; Q 4.49; G 4.17; D 4.77; T 4.54; W 3; E 4.95; N 3.29; S 4.66; Y 4; P 4.01; M 4.2; I 3.87; K 4.53
V11: E 4.58; T 4.07; L 3.72; C 4.27; R 3.94; A 4.03; G 3.25; K 3.48; S 4.09; M 4.15; I 3.72; H 4.41; Q 4.4; D 4.35; N 4.33; W 3.44; Y 3.67; P 4.34; F 3.56
K17: D 4.66; A 3.98; E 4.28; C 3.63
D14: T 3.62; M 3.22; L 3.22; W 2.14; C 2.95; S 3.65; F 2.46; I 3.44; Q 3.58; V 3.69; Y 2.8; P 3.78; N 3.33; R 3.33; H 3.61; E 4.12; A 3.51; K 3.5; G 3.45
S3: A 3.69; K 4.01; W 3.14; H 3.51; T 3.59; F 2.94; P 3.99; I 3.39; L 3.19; D 4.39; R 3.48; V 3.12; M 3.3; Q 3.92; E 4.24; N 4.24; G 4.2; C 2.78; Y 2.62
L13: F 3.52; Q 4.28; Y 3.5; H 4.34; G 4.61; N 4.42; I 4.1; K 4.15; C 3.68; R 3.8; T 4.61; D 4.34; M 4.24; E 4.58; W 3.58; A 4.43; V 4.06; S 4.45; P 4.22
K6: L 4.22; V 3.95; A 3.96; E 4.35; D 4.9; Y 3.44; I 3.57; M 4.15; G 3.97; P 4.48; C 3.73; H 4; R 3.94; T 4.36; W 2.64; Q 4.04; S 4.34; F 2.98; N 4.32
P15: A 3.86; F 3.04; C 3.43; G 3.93; K 3.93; S 3.94; Q 4.03; E 4.64; L 3.62; V 3.88; T 4.14; N 4.11; M 3.74; Y 2.84; H 4.02; R 3.82; D 4.19; I 3.41; W 3.08
G8: V 3.62; D 4.34; A 3.77; P 4.01; N 4.07; C 3.15; I 3.86; E 4.53; S 3.66; Y 3.4; R 3.29; F 3.04; K 3.61; H 3.63; L 4.02; Q 3.7; T 4.45; M 3.95; W 1.87
L7: A 4.62; C 3.59; P 4.51; F 4.1; V 4.19; D 4.15; S 3.96; W 2.28; G 4.76; R 4.15; Y 3.74; T 4.54; M 4.31; K 4.33; N 4.37; I 4.57; E 4.79; Q 4.32; H 4.19
